We go through 1 molecule from article PMC7129694 (Clinical Microbiology and Infection, 2005).

The assay concerns the target Purified recombinant rClfB protein (clumping factor B of Staphylococcus aureus) (Staphylococcus aureus, UniProt O86476 45-877).

Purified recombinant rClfB protein (clumping factor B of Staphylococcus aureus), sequence (O86476 45-877): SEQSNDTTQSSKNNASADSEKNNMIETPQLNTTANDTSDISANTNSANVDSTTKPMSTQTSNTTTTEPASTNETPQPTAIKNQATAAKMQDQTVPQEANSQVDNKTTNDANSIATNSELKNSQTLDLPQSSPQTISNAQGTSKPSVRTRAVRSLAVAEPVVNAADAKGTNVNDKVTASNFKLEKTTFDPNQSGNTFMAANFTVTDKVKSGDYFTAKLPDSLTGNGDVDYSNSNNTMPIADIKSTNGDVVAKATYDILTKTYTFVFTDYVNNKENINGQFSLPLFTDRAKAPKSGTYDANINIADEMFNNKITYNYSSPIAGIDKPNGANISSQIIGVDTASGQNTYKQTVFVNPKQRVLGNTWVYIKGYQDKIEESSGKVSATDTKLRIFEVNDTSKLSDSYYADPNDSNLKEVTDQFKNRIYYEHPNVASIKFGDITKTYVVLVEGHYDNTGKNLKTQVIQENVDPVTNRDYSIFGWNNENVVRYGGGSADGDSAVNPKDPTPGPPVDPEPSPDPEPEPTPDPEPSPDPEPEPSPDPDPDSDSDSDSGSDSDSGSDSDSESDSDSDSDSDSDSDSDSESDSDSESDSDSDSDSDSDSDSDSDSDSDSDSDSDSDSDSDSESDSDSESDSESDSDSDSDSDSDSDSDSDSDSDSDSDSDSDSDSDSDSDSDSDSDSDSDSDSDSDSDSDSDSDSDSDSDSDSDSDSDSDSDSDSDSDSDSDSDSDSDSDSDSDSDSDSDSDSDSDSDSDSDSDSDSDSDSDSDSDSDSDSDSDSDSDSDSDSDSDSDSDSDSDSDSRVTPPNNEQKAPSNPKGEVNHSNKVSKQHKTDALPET

B1: Purified recombinant human cytokeratin 10 (natural protein, UniProt P13645 1-584, looked up)
chain: MSVRYSSSKHYSSSRSGGGGGGGGCGGGGGVSSLRISSSKGSLGGGFSSGGFSGGSFSRGSSGGGCFGGSSGGYGGLGGFGGGSFRGSYGSSSFGGSYGGIFGGGSFGGGSFGGGSFGGGGFGGGGFGGGFGGGFGGDGGLLSGNEKVTMQNLNDRLASYLDKVRALEESNYELEGKIKEWYEKHGNSHQGEPRDYSKYYKTIDDLKNQILNLTTDNANILLQIDNARLAADDFRLKYENEVALRQSVEADINGLRRVLDELTLTKADLEMQIESLTEELAYLKKNHEEEMKDLRNVSTGDVNVEMNAAPGVDLTQLLNNMRSQYEQLAEQNRKDAEAWFNEKSKELTTEIDNNIEQISSYKSEITELRRNVQALEIELQSQLALKQSLEASLAETEGRYCVQLSQIQAQISALEEQLQQIRAETECQNTEYQQLLDIKIRLENEIQTYRSLLEGEGSSGGGGRGGGSFGGGYGGGSSGGGSSGGGHGGGHGGSSGGGYGGGSSGGGSSGGGYGGGSSSGGHGGSSSGGYGGGSSGGGGGGYGGGSSGGGSSSGGGYGGGSSSGGHKSSSSGSVGESSSKGPRY
As for B1, the Kd was in the range of 1.4 to 1.7 µM.
